# Source: US20150064217A1, “PLURIPOTENT GERM LAYER ORIGIN ANTIGEN PRESENTING CANCER VACCINE” (CALIFORNIA STEM CELL, INC., priority 2012, published 2015)
# What was measured:
# melanoma cell lines [1] = experiment: Apoptosis and autophagy induction in melanoma cell lines (7-AAD, annexin-V, LC3 II); type: cell-based
# Protocol: (§1) The methodology of the study was as follows. Autologous and model melanoma tumor cell lines were incubated with 1000 IU/mL of IFN-gamma for 72 hours prior to assaying for autophagy, apoptosis and MHC class II expression. Autophagy was detected by immunobloting with antibodies against LC3 II and by flow cytometry with Enzo's CytoID® Autophagy Detection Kit. Apoptosis and MHC class II induction were assayed by flow cytometry using 7-AAD and annexin-V staining and antibodies against MHC class II, respectively. 7-AAD intercalates in dsDNA. 7-AAD is excluded by viable cells, and thus it can be used to detect dead cells.
# Analysis of tumor cell death and changes in major histocompatibility class II expression in response to IFN-gamma were conducted by use of antibodies directed against MHC class II, annexin-V and 7-amino-actinomycin D (7-AAD) and acquired on a Beckton-Dickenson FACS Calibur® flow cytometer. […]
# (§2) What was investigated was the induction of autophagy, apoptosis and MHC class II molecules after IFN-gamma treatment of melanoma tumor cells in vitro. […] Autophagy was detected by immunobloting with antibodies against LC3 II and by flow cytometry with Enzo's CytoID Autophagy Detection Kit. […]
# SK-5-Mel cells = experiment: MHC class II (HLA-DR) expression by flow cytometry with autophagy inhibitor; type: cell-based; conditions: autophagy inhibitor together with interferon-gamma
# Protocol: The cells were then harvested and assayed for apoptosis and MHC class II (HLA-DR) expression by flow cytometry.
# as §1
# Analysis of tumor cell death and changes in major histocompatibility class II expression in response to IFN-gamma were conducted by use of antibodies directed against MHC class II, annexin-V and 7-amino-actinomycin D (7-AAD) and acquired on a Beckton-Dickenson FACS Calibur® flow cytometer.
# as §2
# melanoma cell lines [2] = experiment: Immunohistochemistry of tumor associated antigens in melanoma cell lines with or without IFN-gamma; type: cell-based, human; conditions: share of melanoma cell lines; 1000 IU/mL IFN-gamma, 72 hours; N = 27 samples
# Protocol: Expression of a panel antigens by melanoma lines were determined using immunocytochemical procedure. Cells were cultured in 8-chamber culture slides (Thermo Fisher, Rochester, N.Y.) in the presence or absence of 1000 IU/mL IFN-gamma. After 72 hours, the cells were washed 3 times with 1× Phosphate Buffered Saline (PBS) and fixed in cold acetone. After blocking endogenous peroxidase, cells were incubated with appropriate primary antibodies against the antigens listed. Immunohistochemistry was performed using biotinylated anitmouse or rabbit immunoglobulins, Super Sensitive enzyme-conjugated streptavidin labeling and horse radish peroxidase chromogen, and substrate kits (Biogenex, San Ramon, Calif.). The reactivity of the following anti-human polyclonal or monoclonal antibodies was investigated with isotype matched control antibody: S-100 and HMB-45 (Biogenex, San Ramon, Calif.), Mel-2, Mel-5, Mart-1 (Signet, Dedham, Mass.), Tyrosinase and Mage-1 (Thermo Scientific, Fremont, Calif.), Melan-A, HLA-class I and HLA-class II (Dako, Denmark).
# [3] = tested on: autologous melanoma cells; experiment: Flow cytometry for MHC class I and class II on autologous melanoma cells; type: cell-based, human; conditions: in response to IFN-gamma treatment
# Protocol: FIGS. 2A-D show characterization of IFN-gamma treated autologous tumor cells used for loading dendritic cells. Autologous melanoma tumor cells were treated with or without 1000 IU/mL IFN-gamma for 72 hours in 15% FBS/ECS in RPMI, harvested and irradiated with 100 Gy and cryopreserved. Cells were then thawed in AIMV and a sample taken for flow cytometry and for preparation of cell lysates for immunoblotting prior to antigen loading of DCs. An example of four separate autologous melanoma cell lines is shown (FIG. 2A, FIG. 2B and FIG. 2C). Induction major histocompatibility complexes by IFN-gamma treatment of autologous tumor cells (FIG. 2D). Tumor cells were harvested after being treated with or without 1000 IU/mL IFN-gamma for 72 hours and then assayed for MHC class I and class II. Control isotype antibodies were used to identify positive populations. Dark data points indicate median mean fluorescent plus/minus 95% confidence interval. N=65. After irradiation, melanoma cells are checked by assays to ensure that there is not any mitosis. […]
# [4] = tested on: Renal Cell Carcinoma tumor cell line; experiment: Response to interferon-gamma by flow cytometry, renal cell carcinoma cell line; type: cell-based; conditions: Sample D, interferon-gamma 72 hours
# Source text: (§3) Pure tumor cells were generated from colon, ovarian, glioblastoma, and renal cell carcinoma according to Dillman and Comforth, et al. (Cornforth, et al. (2011) Cancer Immunol. Immunother. 60:123-131; Dillman, et al. (1993) J. Immunother. Emphasis Tumor Immunol. 14:65-69; Dillman, et al. (2000) Cancer Biother. Radiopharm. 15:161-168; Dillman, et al. (1999) 14:443-449; Dillman et al. (2000) 15:161-168).
# (§4) Briefly, tumor biopsies from surgical samples were enzymatically processed into single cell suspensions and purified cell lines generated by differential attachment and serum starvation. The cell lines generated were cryopreserved in liquid nitrogen, thawed and treated with or without interferon-gamma in 5% fetal bovine serum/RPMI media for 72 hours. After exposure to interferon-gamma, the non-adherent cells were analyzed separately from the adherent cells by flow-cytometry. The markers investigated were MHC class I, MHC class II, Annexin V (apoptosis), and 7-ADD (viability).
# [5] = tested on: Glioblastoma tumor cell line; experiment: Response to interferon-gamma by flow cytometry, glioblastoma cell line; type: cell-based; conditions: Sample C, interferon-gamma 72 hours
# Source text: as §3, §4
# [6] = tested on: autologous melanoma tumor cells; experiment: Immunoblotting of melanoma cell lysates; type: cell-based, human; conditions: cells incubated with IFN-gamma
# Protocol: Cytoplasmic cell lysates were prepared with Mammalian Protein Extraction Reagent (Thermo Scientific, Rockford, Ill.) plus protease inhibitor cocktail (Roche, Indianapolis, Ind.) at 10,000 cells/uL on ice. Approximately 25 uLs/lane of cell lysates were separated on 12.5% tris-glycine gels, transferred to PVDF membrane and probed with antibodies against the following: calreticulin (MBL, Woburn, Mass.), Hsp-60, Hsp-70, Hsp-90 (R&D Systems, Minneapolis, Minn.), HMBG-1 (Cell Signaling, Danvers, Mass.), ICAM-1 (Santa Cruz Biotech, Santa Cruz, Calif.), Mel-4, Mart-1 (Signet, Emeryville, Calif.), tyrosinase (Upstate, Lake Placid, N.Y.) and GADPH (Calbiochem, Darmstadt, Germany).
# Ovarian tumor cell line = experiment: Response to interferon-gamma by flow cytometry, ovarian tumor cell line; type: cell-based; conditions: Sample B, interferon-gamma 72 hours
# Source text: as §3, §4
# Colon tumor cell line = experiment: Response to interferon-gamma by flow cytometry, colon tumor cell line; type: cell-based; conditions: Sample A, interferon-gamma 72 hours
# Source text: as §3, §4
molecule,measurement,setting,value
"carbobenzoxy-valyl-alanyl-aspartyl-[O-methyl]-fluoromethylketone [Z-VAD, reference compound]",apoptosis in IFN-gamma treated cells,melanoma cell lines [1]; pan caspase inhibitor with IFN-gamma,prevents apoptosis
"Cn1cnc(N)c2ncnc1-2 [3-MA, 3-methyladenine]",MHC class II expression despite treatment with interferon-gamma,SK-5-Mel cells,loss of MHC class II expression
"interferon-gamma (protein, UniProt P01579 24-161, looked up, type II interferon (InterMune, Brisbane, Calif.) used to treat tumor cells in vitro) Interferon gamma: QDPYVKEAENLKKYFNAGHSDVADNGTLFLGILKNWKEESDRKIMQSQIVSFYFKLFKNFKDDQSIQKSVETIKEDMNVKFFNSNKKKRDDFEKLTNYSVTDLNVQRKAIHELIQVMAELSPAAKTGKRKRSQMLFRG","HMB-45 expression: Change after IFN-gamma treatment, Down",melanoma cell lines [2],45/5
same,"HMB-45 expression: Change after IFN-gamma treatment, None",melanoma cell lines [2],54.5%
same,"MAGE-1 expression: Change after IFN-gamma treatment, Down",melanoma cell lines [2],61.5%
same,"MAGE-1 expression: Change after IFN-gamma treatment, None",melanoma cell lines [2],38.5%
same,"MART-1 expression: Change after IFN-gamma treatment, Down",melanoma cell lines [2],85.2%
same,"MART-1 expression: Change after IFN-gamma treatment, None",melanoma cell lines [2],14.8%
same,"Mel-2 expression: Change after IFN-gamma treatment, Down",melanoma cell lines [2],53.8%
same,"Mel-2 expression: Change after IFN-gamma treatment, None",melanoma cell lines [2],46.2%
same,"Mel-5 expression: Change after IFN-gamma treatment, Down",melanoma cell lines [2],27.3%
same,"Mel-5 expression: Change after IFN-gamma treatment, None",melanoma cell lines [2],72.7%
same,"Melan-A expression: Change after IFN-gamma treatment, Down",melanoma cell lines [2],70.8%
same,"Melan-A expression: Change after IFN-gamma treatment, None",melanoma cell lines [2],29.2%
same,"S-100 expression: Change after IFN-gamma treatment, Down",melanoma cell lines [2],57.1%
same,"S-100 expression: Change after IFN-gamma treatment, None",melanoma cell lines [2],42.9%
same,"Tyrosinase expression: Change after IFN-gamma treatment, Down",melanoma cell lines [2],60.0%
same,"Tyrosinase expression: Change after IFN-gamma treatment, None",melanoma cell lines [2],40.0%
same,cases with MHC class II induction greater than two fold,[3],70%
same,Induction of MHC class I,[4],No
same,Induction of MHC class II,[4],Yes
same,Induction of apoptosis,[4],Yes
same,Induction of autophagy,[4],Yes
same,Induction of MHC class I,[5],No
same,Induction of MHC class II,[5],Yes
same,Induction of apoptosis,[5],Yes
same,Induction of autophagy,[5],Yes
same,induction of autophagic and apoptotic cell populations,"melanoma cell lines [1]; 1000 IU/mL IFN-gamma, 72 hours",induces both autophagic and apoptotic cell populations
same,"ICAM-1, immunoblot",[6],significantly up-regulated
same,"calreticulin and high-mobility group box-1 protein (HMGB-1), immunoblot",[6],up-regulated in some cases
same,"common melanoma antigens (mel-4, Mart-1 and tyrosinase), immunoblot",[6],down regulated
same,Induction of MHC class I,Ovarian tumor cell line,Yes
same,Induction of MHC class II,Ovarian tumor cell line,Yes
same,Induction of apoptosis,Ovarian tumor cell line,No
same,Induction of autophagy,Ovarian tumor cell line,Yes
same,Induction of MHC class I,Colon tumor cell line,Yes
same,Induction of MHC class II,Colon tumor cell line,Yes
same,Induction of apoptosis,Colon tumor cell line,No
same,Induction of autophagy,Colon tumor cell line,Yes
